Results: patent US20250121086A1, “LIVER-TARGETED SUBSTANCE AND USE THEREOF” (HANMI PHARM. CO., LTD., priority 2021, published 2025)
Bridge positions count the residues as written; N and C are the ends. Square brackets hold non-standard residues; d marks the D form. Ends that are not written are not given here. Aib = CC(C)(N)C(=O)O

Molecular target: human glucagon receptor (human, UniProt P47871 26-477)
Test: cell-based or functional assay

human glucagon receptor, sequence (P47871 26-477): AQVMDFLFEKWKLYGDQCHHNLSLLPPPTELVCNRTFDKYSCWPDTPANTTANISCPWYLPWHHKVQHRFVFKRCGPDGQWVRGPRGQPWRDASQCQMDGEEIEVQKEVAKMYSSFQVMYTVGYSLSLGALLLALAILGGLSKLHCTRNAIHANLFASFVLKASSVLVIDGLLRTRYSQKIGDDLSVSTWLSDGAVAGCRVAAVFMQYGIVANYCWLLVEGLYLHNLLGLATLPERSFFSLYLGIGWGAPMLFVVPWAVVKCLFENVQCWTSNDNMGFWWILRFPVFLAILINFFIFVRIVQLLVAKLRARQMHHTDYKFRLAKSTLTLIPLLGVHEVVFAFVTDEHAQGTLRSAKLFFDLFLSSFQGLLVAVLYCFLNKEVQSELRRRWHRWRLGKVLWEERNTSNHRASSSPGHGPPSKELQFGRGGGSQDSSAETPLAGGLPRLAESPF

In vitro activity (relative activity compared with SEQ ID NO: 1, %); cAMP EC50 in CHO cells expressing human GCG receptor [%] | Binder
18.1 | Y[Aib]QGTFTSDYSKYLDCKRAKEFVQWLMNT [glucagon derivative peptide of SEQ ID NO: 14]
76.8 | Y[Aib]QGTFTSDYSKYCDEKRAKEFVQWLMNT (lactam 16-20) [glucagon derivative peptide of SEQ ID NO: 23]
0.7 | SQGTFTSDYSKYLDECRAKEFVQWLMNT (lactam 15-19) [glucagon derivative peptide of SEQ ID NO: 32]
< 0.1 | W[Aib]QGTFVSDYSKYLDECRAKDFVQWLMNT (lactam 16-20) [glucagon derivative peptide of SEQ ID NO: 28]
108 | YXQGTFTSDYSKYLDSRRAQDFVQWLMNT (aminoisobutyric acid (Aib) at position 2 (printed X)) [glucagon derivative peptide of SEQ ID NO: 33]
6.3 | Y[Aib]QGTFTSDYSKYLDCKRAKEFVQWLMNT (lactam 17-21) [glucagon derivative peptide of SEQ ID NO: 31]
226 | Y[Aib]QGTFTSDYSKYLDERRAKEFVQWLMNTC (lactam 16-20) [glucagon derivative peptide of SEQ ID NO: 37]
< 0.1 | HSQGTFTSDYSKYLDSCEADDFVQWLMNT [glucagon derivative peptide of SEQ ID NO: 6]
45.2 | Y[Aib]QGTFCSDYSKYLDERRAKDFVQWLMNT (lactam 16-20) [glucagon derivative peptide of SEQ ID NO: 41]
37.9 | Y[Aib]QGTFCSDYSKYLDSRRAQDFVQWLMNT [glucagon derivative peptide of SEQ ID NO: 42]
5.2 | Y[Aib]QGTFTSDYSCYLDEKRAKEFVQWLMNT [glucagon derivative peptide of SEQ ID NO: 45]
1 | W[Aib]QGTFTSDYSKYLDECRAKDFVQWLMNT (lactam 16-20) [glucagon derivative peptide of SEQ ID NO: 26]
< 0.1 | YSQGTFTSDYSKYLDSCEADDFVQWLMNT [glucagon derivative peptide of SEQ ID NO: 7]
6.1 | HSQGTFTSDYSKYLDCERAQDFVQWLMNT [glucagon derivative peptide of SEQ ID NO: 3]
< 0.1 | Y[Aib]QGTFTSDYSKYLDSCDAQDFVVWLINT [glucagon derivative peptide of SEQ ID NO: 9]
61.3 | Y[Aib]QGTFTSDYSKCLDERRAKDFVQWLMNT (lactam 16-20) [glucagon derivative peptide of SEQ ID NO: 29]
0.6 | HSQGTFTSDYSKYLDCDRAQDFVQWLMNT [glucagon derivative peptide of SEQ ID NO: 2]
17.7 | Y[Aib]QGTFTSDYSKYCDERRAKEFVQWLMNT (lactam 16-20) [glucagon derivative peptide of SEQ ID NO: 35]
4.6 | Y[Aib]QGTFTSDYSKYLDEKCAKEFVQWLMNT [glucagon derivative peptide of SEQ ID NO: 11]
0.2 | W[Aib]QGTFTSDYSKYCDERRAKEFVQWLMNT (lactam 16-20) [glucagon derivative peptide of SEQ ID NO: 34]
0.3 | HSQGTFTSDYSKYLDSCEAQDFVQWLMNT [glucagon derivative peptide of SEQ ID NO: 5]
9.9 | Y[Aib]QGTFTSDCSKYLDERRAKEFVQWLMNT (lactam 16-20) [glucagon derivative peptide of SEQ ID NO: 36]

In vitro activity (relative activity compared with SEQ ID NO: 1, %); cAMP EC50 in CHO cells expressing human GCG receptor [%] | Binder
4.2 | Y[Aib]QGTFTSDYSKYLDCRRAQVFVQWLMRT [glucagon derivative peptide of SEQ ID NO: 16]
1.1 | Y[Aib]QGTFTSDYSKYLCEKRAQDFVVWLMNT [glucagon derivative peptide of SEQ ID NO: 15]
300 | Y[Aib]QGTFTSDYSKYLDECRAKEFVQWLMNT (lactam 16-20) [glucagon derivative peptide of SEQ ID NO: 20]
148 | Y[Aib]QGTFTSDYSKYLDEKRCKEFVQWLMNT (lactam 16-20) [glucagon derivative peptide of SEQ ID NO: 22]
167 | Y[Aib]QGTFCSDYSKYLDERRAKEFVQWLMNT (lactam 16-20) [glucagon derivative peptide of SEQ ID NO: 38]
12.1 | Y[Aib]QGTFTSDYSKYLCEKRAKEFVQWLMNT (lactam 16-20) [glucagon derivative peptide of SEQ ID NO: 19]
23.2 | Y[Aib]QGTFTSDYSKYLDCVRAQDFVQWLMRT [glucagon derivative peptide of SEQ ID NO: 17]
< 0.1 | Y[Aib]QGTFTSDYSKYLDSRRACDFRLWLMNT [glucagon derivative peptide of SEQ ID NO: 18]
57.8 | Y[Aib]QGTFTSDYSKYLDEKCAKEFVQWLMNT (lactam 16-20) [glucagon derivative peptide of SEQ ID NO: 21]
3.7 | Y[Aib]QGTFVSDCSKYLDERRAKDFVQWLMNT (lactam 16-20) [glucagon derivative peptide of SEQ ID NO: 39]
< 0.1 | HSQGTFTSDYSKYLDSCDAQDFVQWLMNT [glucagon derivative peptide of SEQ ID NO: 4]
75.4 | YXQGTFTSDYSKYLDSRRAQDFVQWLMNTC (aminoisobutyric acid (Aib) at position 2 (printed X)) [glucagon derivative peptide of SEQ ID NO: 44]
< 0.1 | Y[Aib]QGTFTSDYSKYLDSCDAQDFVQWLINT [glucagon derivative peptide of SEQ ID NO: 8]
46.9 | Y[Aib]QGTFTSDYSKYLDEKRAKCFVQWLMNT (lactam 16-20) [glucagon derivative peptide of SEQ ID NO: 25]
93.6 | Y[Aib]QGTFVSDYSKYLDECRAKDFVQWLMNT (lactam 16-20) [glucagon derivative peptide of SEQ ID NO: 27]
< 0.1 | Y[Aib]QGTFTSDYSKYLDSCDADDFVVWLINT [glucagon derivative peptide of SEQ ID NO: 10]
0.3 | W[Aib]QGTFTSDYSKCLDERRAKDFVQWLMNT (lactam 16-20) [glucagon derivative peptide of SEQ ID NO: 30]
40.8 | Y[Aib]QGTFVSDYSKYLDERRAKDFVQWLMNTC (lactam 16-20) [glucagon derivative peptide of SEQ ID NO: 40]
5.2 | Y[Aib]QGTFTSDYSCYLDSRRAQDFVQWLMNT [glucagon derivative peptide of SEQ ID NO: 13]
58 | Y[Aib]QGTFTSDYSKCLDEKRAKEFVQWLMNT (lactam 16-20) [glucagon derivative peptide of SEQ ID NO: 24]
1.6 | Y[Aib]QGTFTSDCSKYLDSRRAQDFVQWLMNT [glucagon derivative peptide of SEQ ID NO: 43]
